Results: patent US20190177705A1 (UNIVERSITEIT GENT, published 2019)

Assays:
[1] = biological target: Flag-gp130-RTp51 fusion protein (encoded by pMG2-RTp51) (human; HIV1) (UniProt P40189); experiment: cell-based or functional assay
[2] = biological target: T1, HA-Tyk2(C)-p53(N) fusion protein (encoded by pMet7-HA-Tyk2(C)-p53(N)) (human, UniProt P04637 2-72); experiment: kinase-substrate sensor assay, rPAPI-luciferase reporter in HEK293-T cells
T1 construct: range 2-72; Expressed in HEK293-T cells; not shown: HA tag

| Molecule | imidazole-dependent induction of the luciferase signal [1] [fold] | binding result [2] |
| --- | --- | --- |
| HA-Tyk2(R1027A)-RTp66 fusion protein (encoded by pMet7-HA-Tyk2(R1027A)-RTp66) | 36 | – |
| unfused gp130 receptor fragment (encoded by pMG1) (other, human, UniProt P40189 760-918, looked up, Background control, expressed in HEK293-T cells; also called unfused gp130 fragment) STVVHSGYRHQVPSVQVFSRSESTQPLLDSEERPEDLQLVDHVDGGDGILPRQQYFKQNCSQHESSPDISHFERSKQVSSVNEEDFVRLKQQISDHISQSCGSGQMKMFQEVSAADAFGPGTEGQVERFETVGMEAATDEGMPKSYLPQTVRQGGYMPQ | – | no binding |
